Source: PMC9267055

B1: serum GPLD1 (enzyme)
chain: CGLSTHVEIGHRALEFLQLHNGRVNYRELLLEHQDAYQAGIVFPDCFYPSICKGGKFHDVSESTHWTPFLNASVHYIRENYPLPWEKDTEKLVAFLFGITSHMAADVSWHSLGLEQGFLRTMGAIDFHGSYSEAHSAGDFGGDVLSQFEFNFNYLARRWYVPVKDLLGIYEKLYGRKVITENVIVDCSHIQFLEMYGEMLAVSKLYPTYSTKSPFLVEQFQEYFLGGLDDMAFWSTNIYHLTSFMLENGTSDCNLPENPLFIACGGQQNHTQGSKMQKNDFHRNLTTSLTESVDRNINYTERGVFFSVNSWTPDSMSFIYKALERNIRTMFIGGSQLSQKHVSSPLASYFLSFPYARLGWAMTSADLNQDGHGDLVVGAPGYSRPGHIHIGRVYLIYGNDLGLPPVDLDLDKEAHRILEGFQPSGRFGSALAVLDFNVDGVPDLAVGAPSVGSEQLTYKGAVYVYFGSKQGGMSSSPNITISCQDIYCNLGWTLLAADVNGDSEPDLVIGSPFAPGGGKQKGIVAAFYSGPSLSDKEKLNVEAANWTVRGEEDFSWFGYSLHGVTVDNRTLLLVGSPTWKNASRLGHLLHIRDEKKSLGRVYGYFPPNGQSWFTISGDKAMGKLGTSLSSGHVLMNGTLKQVLLVGAPTYDDVSKVAFLTVTLHQGGATRMYALTSDAQPLLLSTFSGDRRFSRFGGVLHLSDLDDDGLDEIIMAAPLRIADVTSGLIGGEDGRVYVYNGKETTLGDMTGKCKSWITPCPEEKAQYVLISPEASSRFGSSLITVRSKAKNQVVIAAGRSSLGARLSGALHVYSLGSD

Key:
[1] = target: GPI-APs (transferred from wildtype EL cells to ManN-treated human adipocytes) (human (endogenous in K562 EL cells))
[2] = target: GPI-APs (transferred from wildtype EL cells to ManN-treated human adipocytes) (human (endogenous in K562 EL cells)); remark: listed apart in the source

Molecule | decrease in transfer of GPI-APs from wildtype EL cells to ManN-treated human adipocytes in transwell co-culture (1 week), read by SAW sensing of acceptor PM; BSA 50 mg/mL, final dilution 1:75 [1] | transfer of GPI-APs from wildtype EL cells to ManN-treated human adipocytes in transwell co-culture (1 week), read by SAW sensing of acceptor PM; GPLD1 100 mU/mL (% of serum inhibition) [2]
BSA (fraction V, defatted) (from UniProt P02769 25-607) (natural protein) | 35% | –
B1 | – | 70
